B1: Trastuzumab HCDR3 variant ARYGGGYYYMDY (Fab, V domains shown)
VH: EVQLVESGGGLVQPGGSLRLSCAASGFNIKDTYIHWVRQAPGKGLEWVARIYPTNGYTRYADSVKGRFTISADTSKNTAYLQMNSLRAEDTAVYYCARYGGGYYYMDYWGQGTLVTVSS
VL: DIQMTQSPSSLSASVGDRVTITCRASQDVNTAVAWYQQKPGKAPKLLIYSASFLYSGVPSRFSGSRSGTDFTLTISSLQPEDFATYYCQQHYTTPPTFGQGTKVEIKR
B2: Trastuzumab HCDR3 variant ARWYGGYYMYDY (Fab, V domains shown)
VH: B1 VH with Y99W, G100Y, Y105M, M106Y
VL: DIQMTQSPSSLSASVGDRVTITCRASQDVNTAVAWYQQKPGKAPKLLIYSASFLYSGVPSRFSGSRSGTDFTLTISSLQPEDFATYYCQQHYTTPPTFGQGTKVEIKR
B3: Trastuzumab HCDR3 variant ARWGGNYYYMDY (Fab, V domains shown)
VH: B1 VH with Y99W, G102N
VL: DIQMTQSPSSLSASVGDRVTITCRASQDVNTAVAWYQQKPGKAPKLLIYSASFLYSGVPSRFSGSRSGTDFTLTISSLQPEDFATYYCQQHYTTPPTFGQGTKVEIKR
B4: Trastuzumab HCDR3 variant ARWGGYYYYMDY (Fab, V domains shown)
VH: B1 VH with Y99W, G102Y
VL: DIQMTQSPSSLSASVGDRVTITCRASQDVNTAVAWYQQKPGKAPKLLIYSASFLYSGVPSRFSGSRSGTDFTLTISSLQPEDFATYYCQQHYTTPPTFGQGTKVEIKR
B5: Trastuzumab HCDR3 variant ARYDIGYYDMDK (Fab, V domains shown)
VH: B1 VH with G100D, G101I, Y105D, Y108K
VL: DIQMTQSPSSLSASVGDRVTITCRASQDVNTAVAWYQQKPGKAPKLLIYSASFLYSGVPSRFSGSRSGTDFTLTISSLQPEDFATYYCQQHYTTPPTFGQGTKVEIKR
B6: Trastuzumab HCDR3 variant ARWQGGYYYWDF (Fab, V domains shown)
VH: B1 VH with Y99W, G100Q, M106W, Y108F
VL: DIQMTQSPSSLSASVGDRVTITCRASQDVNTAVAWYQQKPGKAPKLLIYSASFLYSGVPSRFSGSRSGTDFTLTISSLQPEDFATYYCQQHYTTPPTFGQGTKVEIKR
B7: Trastuzumab HCDR3 variant ARWGDYYYYMDY (Fab, V domains shown)
VH: B1 VH with Y99W, G101D, G102Y
VL: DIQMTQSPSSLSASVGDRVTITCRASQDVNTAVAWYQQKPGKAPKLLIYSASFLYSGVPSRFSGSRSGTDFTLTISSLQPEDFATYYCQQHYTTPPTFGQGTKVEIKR
B8: Trastuzumab HCDR3 variant ARYFGGSYAYVY (Fab, V domains shown)
VH: B1 VH with G100F, Y103S, Y105A, M106Y, D107V
VL: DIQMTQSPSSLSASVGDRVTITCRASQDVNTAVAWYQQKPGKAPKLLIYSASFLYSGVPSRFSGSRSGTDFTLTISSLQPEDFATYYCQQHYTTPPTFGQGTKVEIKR
B9: Trastuzumab HCDR3 variant ARWYGYYYYFDV (Fab, V domains shown)
VH: B1 VH with Y99W, G100Y, G102Y, M106F, Y108V
VL: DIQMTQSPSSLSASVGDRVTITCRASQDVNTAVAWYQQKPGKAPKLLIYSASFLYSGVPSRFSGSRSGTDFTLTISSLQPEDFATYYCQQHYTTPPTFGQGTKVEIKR
B10: Trastuzumab HCDR3 variant ARWPGGYYHMDY (Fab, V domains shown)
VH: B1 VH with Y99W, G100P, Y105H
VL: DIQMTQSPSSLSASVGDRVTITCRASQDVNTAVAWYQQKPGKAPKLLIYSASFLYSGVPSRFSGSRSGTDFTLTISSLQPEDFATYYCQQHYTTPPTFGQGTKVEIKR
B11: Trastuzumab HCDR3 variant ARWGGYYYYFDV (Fab, V domains shown)
VH: B1 VH with Y99W, G102Y, M106F, Y108V
VL: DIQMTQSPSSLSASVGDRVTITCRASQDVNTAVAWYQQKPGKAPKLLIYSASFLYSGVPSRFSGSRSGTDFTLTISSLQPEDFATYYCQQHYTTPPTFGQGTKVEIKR
B12: Trastuzumab HCDR3 variant ARWGGDFYAMDY (Fab, V domains shown)
VH: B1 VH with Y99W, G102D, Y103F, Y105A
VL: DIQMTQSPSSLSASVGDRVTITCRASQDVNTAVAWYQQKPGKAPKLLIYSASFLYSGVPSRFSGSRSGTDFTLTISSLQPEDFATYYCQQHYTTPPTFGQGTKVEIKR
B13: Trastuzumab HCDR3 variant AAYTNTFYYLVY (Fab, V domains shown)
VH: B1 VH with R98A, G100T, G101N, G102T, Y103F, M106L, D107V
VL: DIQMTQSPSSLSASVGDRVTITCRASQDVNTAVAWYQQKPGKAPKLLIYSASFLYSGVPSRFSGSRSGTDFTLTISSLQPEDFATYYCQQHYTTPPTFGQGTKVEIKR
B14: Trastuzumab HCDR3 variant ARYGGGFYAMDY (Fab, V domains shown)
VH: B1 VH with Y103F, Y105A
VL: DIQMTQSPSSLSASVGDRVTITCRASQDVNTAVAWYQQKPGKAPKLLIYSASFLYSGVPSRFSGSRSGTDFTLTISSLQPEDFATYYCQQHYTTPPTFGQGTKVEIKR
B15: Trastuzumab HCDR3 variant ARWGYGYYYFDY (Fab, V domains shown)
VH: B1 VH with Y99W, G101Y, M106F
VL: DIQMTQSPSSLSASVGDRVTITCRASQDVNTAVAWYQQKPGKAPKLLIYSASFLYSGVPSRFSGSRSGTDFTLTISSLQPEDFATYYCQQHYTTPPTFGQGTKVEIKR
B16: Trastuzumab HCDR3 variant AIYSDGAYFYGR (Fab, V domains shown)
VH: B1 VH with R98I, G100S, G101D, Y103A, Y105F, M106Y, D107G, Y108R
VL: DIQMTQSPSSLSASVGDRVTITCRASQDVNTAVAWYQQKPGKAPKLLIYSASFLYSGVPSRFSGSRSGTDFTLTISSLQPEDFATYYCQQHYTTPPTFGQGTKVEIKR
B17: Trastuzumab HCDR3 variant ARWGYYYYAMDY (Fab, V domains shown)
VH: B1 VH with Y99W, G101Y, G102Y, Y105A
VL: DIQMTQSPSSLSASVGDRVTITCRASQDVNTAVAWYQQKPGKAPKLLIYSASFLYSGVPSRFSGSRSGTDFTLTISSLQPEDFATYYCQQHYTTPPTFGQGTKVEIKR
B18: Trastuzumab HCDR3 variant AKYGSNYYYLGS (Fab, V domains shown)
VH: B1 VH with R98K, G101S, G102N, M106L, D107G, Y108S
VL: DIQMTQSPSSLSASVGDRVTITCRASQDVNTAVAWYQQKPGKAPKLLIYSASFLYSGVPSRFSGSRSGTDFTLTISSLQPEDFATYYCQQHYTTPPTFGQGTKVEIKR
B19: Trastuzumab HCDR3 variant ARWFYDYYYMDY (Fab, V domains shown)
VH: B1 VH with Y99W, G100F, G101Y, G102D
VL: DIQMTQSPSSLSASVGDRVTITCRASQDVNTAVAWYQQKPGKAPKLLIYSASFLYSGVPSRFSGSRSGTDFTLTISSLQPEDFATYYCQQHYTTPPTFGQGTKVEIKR
B20: Trastuzumab HCDR3 variant ARWYYDYYYMDY (Fab, V domains shown)
VH: B1 VH with Y99W, G100Y, G101Y, G102D
VL: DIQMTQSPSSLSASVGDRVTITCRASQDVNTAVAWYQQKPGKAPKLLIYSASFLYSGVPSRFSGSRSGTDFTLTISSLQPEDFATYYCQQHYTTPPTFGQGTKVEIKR
B21: Trastuzumab HCDR3 variant ARWGFSMYSFDY (Fab, V domains shown)
VH: B1 VH with Y99W, G101F, G102S, Y103M, Y105S, M106F
VL: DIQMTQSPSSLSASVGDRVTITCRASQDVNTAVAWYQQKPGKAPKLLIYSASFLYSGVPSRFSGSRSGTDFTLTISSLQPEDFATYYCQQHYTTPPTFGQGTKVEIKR
B22: Trastuzumab HCDR3 variant ARFGNSGYQFDY (Fab, V domains shown)
VH: B1 VH with Y99F, G101N, G102S, Y103G, Y105Q, M106F
VL: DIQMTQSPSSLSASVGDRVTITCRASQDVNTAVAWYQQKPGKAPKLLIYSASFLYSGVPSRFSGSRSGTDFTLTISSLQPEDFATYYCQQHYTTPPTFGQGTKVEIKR
B23: Trastuzumab HCDR3 variant ARWGDGYYYMDY (Fab, V domains shown)
VH: B1 VH with Y99W, G101D
VL: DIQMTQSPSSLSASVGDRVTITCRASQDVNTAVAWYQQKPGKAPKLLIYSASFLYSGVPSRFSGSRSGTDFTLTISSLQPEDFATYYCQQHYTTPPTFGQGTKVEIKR
B24: Trastuzumab HCDR3 variant ARWLAYWYAMDY (Fab, V domains shown)
VH: B1 VH with Y99W, G100L, G101A, G102Y, Y103W, Y105A
VL: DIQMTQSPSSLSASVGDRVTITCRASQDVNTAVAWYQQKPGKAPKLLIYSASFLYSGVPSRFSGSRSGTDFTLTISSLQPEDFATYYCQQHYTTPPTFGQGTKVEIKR
B25: Trastuzumab HCDR3 variant ARYGGGYYYYDY (Fab, V domains shown)
VH: B1 VH with M106Y
VL: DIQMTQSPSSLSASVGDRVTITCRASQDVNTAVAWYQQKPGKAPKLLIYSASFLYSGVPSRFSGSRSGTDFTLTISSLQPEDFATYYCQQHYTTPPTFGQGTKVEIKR
B26: Trastuzumab HCDR3 variant ARWGYDYYYFAY (Fab, V domains shown)
VH: B1 VH with Y99W, G101Y, G102D, M106F, D107A
VL: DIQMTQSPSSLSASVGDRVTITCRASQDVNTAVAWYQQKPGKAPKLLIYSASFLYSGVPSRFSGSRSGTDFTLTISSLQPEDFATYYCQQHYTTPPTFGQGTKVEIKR
B27: Trastuzumab HCDR3 variant ARWFGGYYHMDY (Fab, V domains shown)
VH: B1 VH with Y99W, G100F, Y105H
VL: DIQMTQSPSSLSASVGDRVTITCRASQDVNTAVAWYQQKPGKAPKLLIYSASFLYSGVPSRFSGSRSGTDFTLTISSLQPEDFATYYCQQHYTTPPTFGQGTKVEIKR
B28: Trastuzumab HCDR3 variant ARWYGAYYHMDY (Fab, V domains shown)
VH: B1 VH with Y99W, G100Y, G102A, Y105H
VL: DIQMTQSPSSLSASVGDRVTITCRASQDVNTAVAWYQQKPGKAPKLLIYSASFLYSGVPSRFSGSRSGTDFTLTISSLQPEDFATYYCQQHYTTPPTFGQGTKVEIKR
B29: Trastuzumab HCDR3 variant ARWYGGYYHHDY (Fab, V domains shown)
VH: B1 VH with Y99W, G100Y, Y105H, M106H
VL: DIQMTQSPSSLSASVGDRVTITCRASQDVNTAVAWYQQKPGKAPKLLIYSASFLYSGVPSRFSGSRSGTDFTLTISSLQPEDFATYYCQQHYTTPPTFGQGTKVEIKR
B30: Trastuzumab HCDR3 variant ARYDYGYYIYVS (Fab, V domains shown)
VH: B1 VH with G100D, G101Y, Y105I, M106Y, D107V, Y108S
VL: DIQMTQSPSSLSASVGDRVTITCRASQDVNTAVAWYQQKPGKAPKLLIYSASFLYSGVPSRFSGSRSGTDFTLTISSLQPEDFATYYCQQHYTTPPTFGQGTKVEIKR
B31: Trastuzumab HCDR3 variant ARWGSGYYYMDY (Fab, V domains shown)
VH: B1 VH with Y99W, G101S
VL: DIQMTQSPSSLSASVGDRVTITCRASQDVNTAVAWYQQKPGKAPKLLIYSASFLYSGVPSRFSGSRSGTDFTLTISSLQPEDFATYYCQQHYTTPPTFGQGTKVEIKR
B32: Trastuzumab HCDR3 variant ARWSSGYYYMDY (Fab, V domains shown)
VH: B1 VH with Y99W, G100S, G101S
VL: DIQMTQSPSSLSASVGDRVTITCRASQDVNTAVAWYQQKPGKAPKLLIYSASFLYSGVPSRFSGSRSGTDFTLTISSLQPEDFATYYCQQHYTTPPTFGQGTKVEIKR
B33: Trastuzumab HCDR3 variant ARYGGGYWYFDY (Fab, V domains shown)
VH: B1 VH with Y104W, M106F
VL: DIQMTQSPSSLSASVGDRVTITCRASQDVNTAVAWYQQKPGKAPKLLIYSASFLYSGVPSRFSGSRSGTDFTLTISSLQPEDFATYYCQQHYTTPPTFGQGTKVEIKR
B34: Trastuzumab HCDR3 variant ARYGGFYYYFDY (Fab, V domains shown)
VH: B1 VH with G102F, M106F
VL: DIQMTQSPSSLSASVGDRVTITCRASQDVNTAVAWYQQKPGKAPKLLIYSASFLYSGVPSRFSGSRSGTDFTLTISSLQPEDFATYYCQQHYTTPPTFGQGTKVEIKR
B35: Trastuzumab HCDR3 variant ARFGGYYYYFDY (Fab, V domains shown)
VH: B1 VH with Y99F, G102Y, M106F
VL: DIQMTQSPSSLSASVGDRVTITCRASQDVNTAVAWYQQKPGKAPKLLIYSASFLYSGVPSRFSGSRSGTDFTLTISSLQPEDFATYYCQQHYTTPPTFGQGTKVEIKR
B36: Trastuzumab HCDR3 variant ARWGGYYYYFDY (Fab, V domains shown)
VH: B1 VH with Y99W, G102Y, M106F
VL: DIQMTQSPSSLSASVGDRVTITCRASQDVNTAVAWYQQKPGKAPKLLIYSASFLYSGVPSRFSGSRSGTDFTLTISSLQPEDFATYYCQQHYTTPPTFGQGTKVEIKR
B37: Trastuzumab HCDR3 variant AKYGDDNYGFSH (Fab, V domains shown)
VH: B1 VH with R98K, G101D, G102D, Y103N, Y105G, M106F, D107S, Y108H
VL: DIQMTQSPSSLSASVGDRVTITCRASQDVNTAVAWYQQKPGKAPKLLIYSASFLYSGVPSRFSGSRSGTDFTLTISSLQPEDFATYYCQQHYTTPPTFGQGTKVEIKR
B38: Trastuzumab HCDR3 variant AKYSFGGYYYGD (Fab, V domains shown)
VH: B1 VH with R98K, G100S, G101F, Y103G, M106Y, D107G, Y108D
VL: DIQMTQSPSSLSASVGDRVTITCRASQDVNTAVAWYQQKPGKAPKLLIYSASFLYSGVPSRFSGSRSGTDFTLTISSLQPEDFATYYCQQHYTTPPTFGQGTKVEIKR
B39: Trastuzumab HCDR3 variant ALYGNYSYGFAR (Fab, V domains shown)
VH: B1 VH with R98L, G101N, G102Y, Y103S, Y105G, M106F, D107A, Y108R
VL: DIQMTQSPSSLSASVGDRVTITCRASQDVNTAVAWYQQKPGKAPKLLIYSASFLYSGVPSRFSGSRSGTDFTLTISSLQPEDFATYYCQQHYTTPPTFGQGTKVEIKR
B40: Trastuzumab HCDR3 variant ARWGNYYYYMDY (Fab, V domains shown)
VH: B1 VH with Y99W, G101N, G102Y
VL: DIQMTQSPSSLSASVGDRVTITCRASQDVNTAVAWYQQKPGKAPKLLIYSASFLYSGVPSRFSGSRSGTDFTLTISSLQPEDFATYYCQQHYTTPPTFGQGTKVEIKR
B41: Trastuzumab HCDR3 variant ARYGAYFYAMDA (Fab, V domains shown)
VH: B1 VH with G101A, G102Y, Y103F, Y105A, Y108A
VL: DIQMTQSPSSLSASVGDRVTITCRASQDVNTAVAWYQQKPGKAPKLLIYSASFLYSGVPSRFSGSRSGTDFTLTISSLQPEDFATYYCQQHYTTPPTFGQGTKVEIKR
B42: Trastuzumab HCDR3 variant ARWGYYYYYMDY (Fab, V domains shown)
VH: B1 VH with Y99W, G101Y, G102Y
VL: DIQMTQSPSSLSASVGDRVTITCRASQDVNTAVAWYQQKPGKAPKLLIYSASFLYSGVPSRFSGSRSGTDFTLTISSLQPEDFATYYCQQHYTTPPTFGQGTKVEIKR
B43: Trastuzumab HCDR3 variant ARWSYGYYNFDY (Fab, V domains shown)
VH: B1 VH with Y99W, G100S, G101Y, Y105N, M106F
VL: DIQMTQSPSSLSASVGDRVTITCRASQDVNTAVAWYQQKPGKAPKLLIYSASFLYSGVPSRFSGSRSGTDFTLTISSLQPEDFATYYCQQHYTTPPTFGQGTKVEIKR
B44: Trastuzumab HCDR3 variant ALWGFGWYYFDY (Fab, V domains shown)
VH: B1 VH with R98L, Y99W, G101F, Y103W, M106F
VL: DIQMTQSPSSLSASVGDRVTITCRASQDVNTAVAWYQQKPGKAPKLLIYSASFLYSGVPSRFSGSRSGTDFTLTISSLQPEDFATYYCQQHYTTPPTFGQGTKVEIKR
B45: Trastuzumab HCDR3 variant ARWAGDYYVMDY (Fab, V domains shown)
VH: B1 VH with Y99W, G100A, G102D, Y105V
VL: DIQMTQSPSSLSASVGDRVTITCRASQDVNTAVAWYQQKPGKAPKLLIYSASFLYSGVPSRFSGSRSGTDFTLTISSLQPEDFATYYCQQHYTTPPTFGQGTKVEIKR
B46: Trastuzumab HCDR3 variant ARFGSYYYYFDY (Fab, V domains shown)
VH: B1 VH with Y99F, G101S, G102Y, M106F
VL: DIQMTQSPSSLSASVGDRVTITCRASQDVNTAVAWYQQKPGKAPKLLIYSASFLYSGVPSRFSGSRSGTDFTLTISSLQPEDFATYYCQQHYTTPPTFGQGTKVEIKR
B47: Trastuzumab HCDR3 variant ALYNYYYYAFGF (Fab, V domains shown)
VH: B1 VH with R98L, G100N, G101Y, G102Y, Y105A, M106F, D107G, Y108F
VL: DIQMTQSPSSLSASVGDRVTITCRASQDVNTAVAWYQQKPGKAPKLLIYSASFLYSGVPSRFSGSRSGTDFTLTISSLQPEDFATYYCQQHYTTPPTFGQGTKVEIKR

Changes are numbered by the printed parent chain.

The target in this experiment is T1, HER2 (human epidermal growth factor receptor 2) (human, UniProt P04626 23-629).
T1 construct: also called Antigen: HER2
Kind of experiment: SPR.
With B1, the affinity, expressed as Kd, was 13.3 nM and the “log(KD (M))” value is -7.88.

On to B2, for which binding was put at a Kd of 19.1 nM and the “log(KD (M))” value is -7.72.

Consider B3, for which the equilibrium dissociation constant (Kd) was 4.22 nM and the “log(KD (M))” value was -8.37.

B4: the dissociation constant (Kd) was determined as 3.62 nM and the “log(KD (M))” value is -8.44.

B5: binding was characterised by a dissociation constant (Kd) of 27 nM and the “log(KD (M))” value was -7.57.

For B6, binding was put at a Kd of 13.8 nM and the “log(KD (M))” value is -7.86.

For B7, the equilibrium dissociation constant (Kd) was 2.36 nM and the “log(KD (M))” value is -8.63.

Take B8: the Kd was determined as 11.2 nM and the “log(KD (M))” value is -7.95.

As for B9, the Kd came to 11.2 nM and the “log(KD (M))” value was -7.95.

For the molecule B10, the equilibrium dissociation constant (Kd) stood at 8.49 nM and the “log(KD (M))” value is -8.07.

As for B11, the affinity, expressed as Kd, was 13 nM and the “log(KD (M))” value was -7.89.

For B12, the Kd amounted to 9.49 nM and the “log(KD (M))” value was -8.02.

For B13, the Kd was found to be 19.8 nM and the “log(KD (M))” value is -7.7.

Turning to B14, the affinity, expressed as Kd, was 22.4 nM and the “log(KD (M))” value was -7.65.

As for B15, the equilibrium dissociation constant (Kd) is 25.2 nM and the “log(KD (M))” value was -7.6.

B16: the Kd worked out at 10.6 nM and the “log(KD (M))” value was -7.98.

For the molecule B17, the affinity, expressed as Kd, was 22.6 nM and the “log(KD (M))” value is -7.65.

B18: the affinity, expressed as Kd, was 18.7 nM and the “log(KD (M))” value was -7.73.

Consider B19, for which the affinity, expressed as Kd, was 12.6 nM and the “log(KD (M))” value is -7.9.

On to B20, for which the dissociation constant Kd was 13.9 nM and the “log(KD (M))” value was -7.86.

For the molecule B21, the Kd came to 7.5 nM and the “log(KD (M))” value is -8.12.

Consider B22, for which binding was put at a Kd of 10.5 nM and the “log(KD (M))” value is -7.98.

As for B23, the Kd amounted to 5.57 nM and the “log(KD (M))” value is -8.25.

On to B24, for which the Kd came out at 3.55 nM and the “log(KD (M))” value was -8.45.

As for B25, the Kd amounted to 9.11 nM and the “log(KD (M))” value is -8.04.

As to B26, the Kd came out at 26.5 nM and the “log(KD (M))” value is -7.58.

B27: binding was put at a Kd of 8.52 nM and the “log(KD (M))” value is -8.07.

In the case of B28, the Kd came out at 5.59 nM and the “log(KD (M))” value was -8.25.

Take B29: the affinity, expressed as Kd, was 8.57 nM and the “log(KD (M))” value was -8.07.

Consider B30, for which the affinity, expressed as Kd, was 9.49 nM and the “log(KD (M))” value is -8.02.

Turning to B31, the dissociation constant (Kd) was 4.46 nM and the “log(KD (M))” value was -8.35.

For the molecule B32, the Kd came to 12 nM and the “log(KD (M))” value is -7.92.

In the case of B33, the Kd worked out at 23.4 nM and the “log(KD (M))” value was -7.63.

For B34, binding was characterised by a dissociation constant (Kd) of 6.17 nM and the “log(KD (M))” value was -8.21.

For the molecule B35, the dissociation constant Kd came out at 23.5 nM and the “log(KD (M))” value is -7.63.

On to B36, for which binding was characterised by a dissociation constant (Kd) of 12.8 nM and the “log(KD (M))” value was -7.89.

Take B37: the Kd is 15.4 nM and the “log(KD (M))” value is -7.81.

On to B38, for which binding was characterised by a dissociation constant (Kd) of 19.1 nM and the “log(KD (M))” value was -7.72.

As for B39, the Kd was 12.6 nM and the “log(KD (M))” value is -7.9.

For B40, binding was characterised by a dissociation constant (Kd) of 1.69 nM and the “log(KD (M))” value is -8.77.

B41: binding was characterised by a dissociation constant (Kd) of 18.6 nM and the “log(KD (M))” value was -7.73.

Consider B42, for which the Kd worked out at 2.28 nM and the “log(KD (M))” value is -8.64.

Consider B43, for which the Kd is 1.98 nM and the “log(KD (M))” value is -8.7.

On to B44, for which the affinity, expressed as Kd, was 5.31 nM and the “log(KD (M))” value was -8.28.

For B45, binding was put at a Kd of 7.68 nM and the “log(KD (M))” value is -8.11.

As to B46, the affinity, expressed as Kd, was 13 nM and the “log(KD (M))” value is -7.89.

On to B47, for which the dissociation constant (Kd) came to 20.6 nM and the “log(KD (M))” value was -7.69.

Values taken from patent US20250218531A1 (ABSCI, published 2025).
